Positions count from the first letter of the chain named.

Test [1] has as its target T1, PDL1 on MDA MB-231 human breast cancer cells (human, UniProt Q9NZQ7 19-290).
T1 construct: whole, on cells; also called 表达PD-L1的肿瘤细胞
The test can be described thus: flow cytometry on MDA MB-231 cells, anti-human IgG Fc secondary antibody. Background: In flow cytometry, cells or beads pass a laser one at a time.

Test [2] concerns the target PDL1 on PDL1 aAPC/CHOK1 cells (UniProt Q9NZQ7 19-290, limits assumed). The test can be described thus: cell-based or functional assay.
Test [3] addresses T2, 人PD-L1 (recombinant protein of the phage ELISA) (human, UniProt Q9NZQ7 19-239, limits assumed).
T2 construct: also called CD274; B7同源物1
The test can be described thus: competitive phage ELISA, Fab on phage, soluble PD-L1 against coated PD-L1. (In general: In an ELISA, binding on a coated surface is turned into a signal by an enzyme label.)

The target in test [4] is T2, 人PD-L1 (recombinant protein of the …). Description: competitive phage ELISA, ratio to parental clone 12A4.

B1: 抗PDL1单克隆抗体12A4bad (antibody, V domains shown)
VH: QVQLVQSGAEVKKPGSSVKVSCKTSGDTFSTYAISWVRQAPGQGLEWMGGIIPLFGKAHYAQKFQGRVTITADESTSTAYMELSSLRSEDTAVYFCARKFHFVRGSPFGMDVWGQGTTVTVSS
VL: EIVLTQSPATLSLSPGERATLSCRASQSVSSYLAWYQQKPGQAPRLLIYDASNRAPGIPARFSGSGSGTDFTLTISSLEPEDFAVYYCQQRSNWPTFGQGTKVEIK
In test [1], B1 came in with a Kd of 0.0778 nM. The “EC50 of luminescence in the PDL1/PD1 blockade bioassay” value in test [2] turned out to be 0.344 nM.

B2: 12A4bad (Fab displayed on phage) (Fab, V domains shown)
VH: B1 VH
VL: B1 VL
Consider B2, for which, in test [3], the Kd worked out at 1.5 nM. Moreover, the 相对于12A4亲本克隆的改善 in test [4] was 7.5 fold.

B3: 12A4bd (Fab displayed on phage) (Fab, V domains shown)
VH: B1 VH
VL: not shown
As for B3, the Kd in test [3] was 1.8 nM. Further, in test [4], the 相对于12A4亲本克隆的改善 turned out to be 6.3 fold.

B4: 12A4a (Fab displayed on phage) (Fab, V domains shown)
VH: B1 VH with L54I, R104S
VL: B1 VL
B4: in test [3], the dissociation constant Kd was determined as 8.3 nM. The 相对于12A4亲本克隆的改善 in test [4] was determined as 1.3 fold.

The term Kd denotes a measure of binding affinity in units of concentration.
